± gives the uncertainty stated by the source.
Experiment: self-splicing fitness, log relative to wild type (ln ratio); higher = more splicing; Tetrahymena group I intron in knt gene, E. coli kanamycin selection, DiMSum; sequences stand for … in CUCUCU…GGAGGGAAAAGUUAUCAGGCAUGCACCUGGUAGCUAGUCUUUAAACCAAUAGAUUGCAUCGGUUUAAAAGGCAAGACCGUCAAAUUGCGGGAAAGGGGUCAACAGCCGUUCAGUACCAAGUCUCAGGGGAAACUUUGAGAUGGCCUUGCAAAGGGUAUGGUAAUAAGCUGACGGACAUGGUCCUAACCACGCAGCCAAGUCCUAAGUCAACAGAUCUUCUGUUGAUAUGGAUGCAGUUCACAGACUAAAUGUCGGUCGGGGAAGAUGUAUUCUUCUCAUAAGAUAUAGUCGGACCUCUCCUUAAUGGGAGCUAGCGGAUGAAGUGAUGCAACACUGGAGCCGCUGGGAACUAAUUUGUAUGCGAAAGUAUAUUGAUUAGUUUUGGAGUACUCGUGGUCG
In short: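 Six replicate transformations of E. coli BL21(DE3) with a pET-22b(+) library were grown overnight at 37°C or 30°C. The library randomised all eight P1ex-region intron nucleotides, the intron lying in the knt kanamycin-resistance gene, and plates were LB agar with or without 25 μg/mL kanamycin plus 100 μg/mL carbenicillin, 50 μM IPTG and 0.2% rhamnose. Pooled colonies were amplicon-sequenced on an Illumina HiSeq 2500, and fitness is the DiMSum error-weighted combination of wild-type-normalised replicate fold changes, kanamycin versus none.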

Row | Sequence | self-splicing fitness (ln) (30 °C) | self-splicing fitness (ln) (37 °C)
1 | ACCCAGCAAUAUUACGAUUU | -0.881 ± 0.054 | 0.0888 ± 0.069
2 | GUUGAGCAAUAUUACGCGGU | -3.32 ± 0.41 | -2.73 ± 0.34
3 | AUACAGCAAUAUUACGCCGA | -1.98 ± 0.18 | -1.51 ± 0.19
4 | GCAGAGCAAUAUUACGUCAA | -2.73 ± 0.45 | 
5 | UCCUAGCAAUAUUACGGUUA |  | -2.54 ± 0.31
6 | AUGAAGCAAUAUUACGCACU | 0.079 ± 0.14 | 0.992 ± 0.22
7 | GUACAGCAAUAUUACGGCCC | -0.268 ± 0.088 | -0.155 ± 0.11
8 | UUGUAGCAAUAUUACGCGAU | -3.54 ± 0.26 | -2.51 ± 0.25
9 | CGGUAGCAAUAUUACGCGUC |  | -1.81 ± 0.39
10 | GACUAGCAAUAUUACGGACA | -0.472 ± 0.1 | -0.0878 ± 0.11
11 | CCACAGCAAUAUUACGGACU | -3.9 ± 0.15 | -2.95 ± 0.14
12 | CUUGAGCAAUAUUACGGCCA | -1.69 ± 0.23 | -2.78 ± 0.36
13 | CGGAAGCAAUAUUACGCGCC |  | -0.393 ± 0.27
14 | CUACAGCAAUAUUACGCGCG | -1.36 ± 0.082 | -0.796 ± 0.11
15 | GCGCAGCAAUAUUACGGGGU | -2.94 ± 0.096 | -2.31 ± 0.13
16 | CGCCAGCAAUAUUACGGUUU | -0.936 ± 0.056 | -0.589 ± 0.059
17 | GUUGAGCAAUAUUACGCUGU | -4.02 ± 0.22 | -2.15 ± 0.19
18 | AUUGAGCAAUAUUACGACAC | -2.36 ± 0.19 | -1.45 ± 0.22
19 | AUUUAGCAAUAUUACGGUAA | -1.59 ± 0.17 | -1.54 ± 0.17
20 | CAUAAGCAAUAUUACGUUUC | -3.35 ± 0.21 | -2.26 ± 0.2
21 | CCGAAGCAAUAUUACGGUUC | -3.74 ± 0.26 | -2.66 ± 0.2
22 | GCAGAGCAAUAUUACGCAAU |  | -1.61 ± 0.28
23 | UCAAAGCAAUAUUACGCAUG | -1.44 ± 0.12 | -1.27 ± 0.14
24 | CUCAAGCAAUAUUACGCAAC | -2.65 ± 0.36 | 
25 | AUUUAGCAAUAUUACGCAAG | -2.59 ± 0.32 | -0.488 ± 0.14

Row | Sequence | self-splicing fitness (ln) (30 °C) | self-splicing fitness (ln) (37 °C)
26 | AGUUAGCAAUAUUACGAGCC | -1.84 ± 0.13 | -1.12 ± 0.13
27 | CAAAAGCAAUAUUACGGCAG | 0.126 ± 0.077 | -0.164 ± 0.089
28 | CCUUAGCAAUAUUACGCUGC | -2.81 ± 0.28 | 
29 | CGCCAGCAAUAUUACGCGCU | -3.54 ± 0.15 | -2.52 ± 0.15
30 | AUAAAGCAAUAUUACGCGCG | -0.354 ± 0.09 | 0.713 ± 0.12
31 | ACGUAGCAAUAUUACGUUGC | -3.35 ± 0.24 | -1.68 ± 0.22
32 | ACGCAGCAAUAUUACGUCCA | -1.28 ± 0.11 | -1.13 ± 0.1
33 | CUAGAGCAAUAUUACGGUCU |  | -3.69 ± 0.34
34 | UUCCAGCAAUAUUACGUGUG | -0.736 ± 0.04 | -0.164 ± 0.055
35 | AUACAGCAAUAUUACGCCGU | -1.34 ± 0.099 | -0.0561 ± 0.1
36 | AGACAGCAAUAUUACGCUGU | -4.06 ± 0.29 | -2.54 ± 0.21
37 | CCCAAGCAAUAUUACGUUAG | -4.82 ± 0.24 | -3.02 ± 0.22
38 | AUCAAGCAAUAUUACGAAUA | -2.36 ± 0.21 | -1.44 ± 0.17
39 | UACUAGCAAUAUUACGCUCU | -0.792 ± 0.085 | -0.262 ± 0.1
40 | UUUCAGCAAUAUUACGGCCA | -1.3 ± 0.19 | -0.656 ± 0.11
41 | UAAAAGCAAUAUUACGAAUA | -0.61 ± 0.11 | -0.627 ± 0.11
42 | CCAAAGCAAUAUUACGUGCG | -0.979 ± 0.065 | -0.611 ± 0.081
43 | UCACAGCAAUAUUACGCUCG | -1.15 ± 0.086 | 0.16 ± 0.1
44 | CCUGAGCAAUAUUACGUACG | -2.08 ± 0.2 | -1.24 ± 0.22
45 | ACUUAGCAAUAUUACGUAGC | -2.76 ± 0.12 | -1.58 ± 0.13
46 | UUACAGCAAUAUUACGCAAG | -1.73 ± 0.1 | -0.345 ± 0.12
47 | CGAGAGCAAUAUUACGGAUG | -3.42 ± 0.33 | -1.83 ± 0.28
48 | CGAUAGCAAUAUUACGGUAC | -3.93 ± 0.24 | -2.89 ± 0.25
49 | UCAAAGCAAUAUUACGCCUU | -3.63 ± 0.26 | -2.93 ± 0.28
50 | CCCCAGCAAUAUUACGGCAC | -4.46 ± 0.42 | -2.55 ± 0.29

Row | Sequence | self-splicing fitness (ln) (30 °C) | self-splicing fitness (ln) (37 °C)
51 | CGCCAGCAAUAUUACGCAUU | -3.11 ± 0.25 | -2.01 ± 0.18
52 | AUAUAGCAAUAUUACGCCUA | -0.306 ± 0.17 | -0.0941 ± 0.12
53 | AUAAAGCAAUAUUACGAGAG | -2.29 ± 0.18 | -1.03 ± 0.15
54 | GCUAAGCAAUAUUACGGAUG | -1.52 ± 0.081 | -0.677 ± 0.12
55 | AAUGAGCAAUAUUACGACUG | -3.77 ± 0.28 | -0.811 ± 0.19
56 | UAGGAGCAAUAUUACGCAUA | -2.01 ± 0.19 | -1.78 ± 0.17
57 | GGUUAGCAAUAUUACGACGU | 0.152 ± 0.071 | 0.738 ± 0.089
58 | GACAAGCAAUAUUACGACGA | -0.615 ± 0.067 | 0.296 ± 0.095
59 | AAAGAGCAAUAUUACGCGAA | -2.83 ± 0.2 | -1.46 ± 0.24
60 | UCACAGCAAUAUUACGCCCU | -3.66 ± 0.35 | -0.688 ± 0.2
61 | CUUUAGCAAUAUUACGGCGU | -3.31 ± 0.47 | -1.89 ± 0.26
62 | GGAUAGCAAUAUUACGCCUC | -2.02 ± 0.32 | 
63 | CCUCAGCAAUAUUACGCGUC | -4.16 ± 0.46 | -2.18 ± 0.34
64 | GAUCAGCAAUAUUACGGCUG | -3.29 ± 0.19 | -1.12 ± 0.16
65 | UCUUAGCAAUAUUACGCAGG | -3.45 ± 0.43 | -1.75 ± 0.38
66 | GUUUAGCAAUAUUACGGGAU | -2.57 ± 0.14 | -1 ± 0.15
67 | UAGCAGCAAUAUUACGGUGC | -2.2 ± 0.22 | -3.51 ± 0.42
68 | CUGUAGCAAUAUUACGCUGA | -1.34 ± 0.16 | -3.78 ± 0.29
69 | UGUCAGCAAUAUUACGAGAC |  | -2.91 ± 0.29
70 | CCGUAGCAAUAUUACGACAU | -3.773 ± 0.027 | -2.94 ± 0.042
71 | AUCUAGCAAUAUUACGAGUU | -2.66 ± 0.16 | -0.737 ± 0.14
72 | GAAGAGCAAUAUUACGGUGG | -4.19 ± 0.33 | -3.17 ± 0.32
73 | CCAUAGCAAUAUUACGAUAC | -3 ± 0.29 | -2.33 ± 0.23
74 | UGAUAGCAAUAUUACGGAGG | -2.79 ± 0.26 | -1.56 ± 0.36
75 | AAGCAGCAAUAUUACGGUGU | -1.85 ± 0.09 | -0.979 ± 0.12

Row | Sequence | self-splicing fitness (ln) (30 °C) | self-splicing fitness (ln) (37 °C)
76 | UCCAAGCAAUAUUACGGCCC |  | -1.45 ± 0.32
77 | AUGAAGCAAUAUUACGUAAG | -1.05 ± 0.057 | -0.409 ± 0.083
78 | AUAUAGCAAUAUUACGUUUG | -2.71 ± 0.23 | -2.21 ± 0.26
79 | UUCGAGCAAUAUUACGGACU | -4.76 ± 0.38 | -2.63 ± 0.21
80 | GGAAAGCAAUAUUACGCGGU | -3.32 ± 0.13 | -3.21 ± 0.2
81 | CAACAGCAAUAUUACGGUGU | -3.34 ± 0.12 | -2.55 ± 0.14
82 | CAUCAGCAAUAUUACGGCCA | -2.63 ± 0.28 | -0.947 ± 0.27
83 | CAUGAGCAAUAUUACGUCCA | -2.74 ± 0.33 | -2.28 ± 0.34
84 | AUAGAGCAAUAUUACGACGA | -0.935 ± 0.093 | -0.479 ± 0.13
85 | CGAAAGCAAUAUUACGAGGC | -3.72 ± 0.2 | -1.88 ± 0.21
86 | UCAGAGCAAUAUUACGCGUU | -4.72 ± 0.29 | -2.78 ± 0.21
87 | CACGAGCAAUAUUACGAGGG | -3.64 ± 0.25 | -3.25 ± 0.33
88 | GCACAGCAAUAUUACGCUUU | -0.861 ± 0.055 | -0.0512 ± 0.068
89 | GGCGAGCAAUAUUACGAGAA |  | -2.57 ± 0.41
90 | UAAGAGCAAUAUUACGUGAU | -4.21 ± 0.34 | -2.43 ± 0.35
91 | ACGGAGCAAUAUUACGUCUU | -2.7 ± 0.35 | -2.06 ± 0.5
92 | AGCCAGCAAUAUUACGAUGG | -4.33 ± 0.26 | -2.28 ± 0.19
93 | UUUUAGCAAUAUUACGGCCC |  | -1.14 ± 0.42
94 | CUUCAGCAAUAUUACGACGG | -2.16 ± 0.13 | -0.57 ± 0.23
95 | CUUCAGCAAUAUUACGGCUC | -3.8 ± 0.37 | -2.51 ± 0.35
96 | UGUAAGCAAUAUUACGCAAG | -2.85 ± 0.39 | -2.66 ± 0.44
97 | UCGCAGCAAUAUUACGGUGG | -3.36 ± 0.18 | -2.85 ± 0.21
98 | AGACAGCAAUAUUACGUCCA | -0.173 ± 0.092 | -0.591 ± 0.14
99 | ACCCAGCAAUAUUACGUGGC | -2.83 ± 0.13 | -1.69 ± 0.11
